The source of these data is paper PMC3080791.

The assay addresses α-dystroglycan isolated from skeletal muscle (UniProt Q28685). Nature of the assay: ELISA.
Chain of UniProt Q28685 (Q28685 30-653): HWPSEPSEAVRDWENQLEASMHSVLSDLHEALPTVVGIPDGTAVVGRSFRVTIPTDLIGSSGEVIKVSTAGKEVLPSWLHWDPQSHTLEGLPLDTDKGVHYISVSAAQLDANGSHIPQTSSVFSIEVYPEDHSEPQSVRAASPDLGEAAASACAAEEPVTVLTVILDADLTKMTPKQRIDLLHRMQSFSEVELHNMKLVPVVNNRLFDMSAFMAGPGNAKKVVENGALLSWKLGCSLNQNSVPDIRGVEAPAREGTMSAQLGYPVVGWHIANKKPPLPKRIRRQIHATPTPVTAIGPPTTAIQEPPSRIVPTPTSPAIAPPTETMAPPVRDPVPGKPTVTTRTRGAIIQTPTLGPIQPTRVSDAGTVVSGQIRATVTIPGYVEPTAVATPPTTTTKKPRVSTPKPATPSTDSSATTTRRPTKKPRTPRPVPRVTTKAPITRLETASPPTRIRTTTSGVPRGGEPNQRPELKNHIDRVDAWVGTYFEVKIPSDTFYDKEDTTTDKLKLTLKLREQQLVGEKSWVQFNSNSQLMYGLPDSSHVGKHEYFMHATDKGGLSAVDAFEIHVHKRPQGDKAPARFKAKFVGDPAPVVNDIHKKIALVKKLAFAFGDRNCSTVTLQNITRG

As to “LCMV WE54 envelope glycoprotein displayed on FIV lentiviral vector particles (FIV-WE54) (complex)”, the OD relative to wild-type LCMV WE54 was 0.33.
